Article PMC3384336 (Nucleic Acids Research, 2012)

T1: RNA polymerase I subunit A135 (Saccharomyces cerevisiae, UniProt P22138 1-1203)
T1 sequence: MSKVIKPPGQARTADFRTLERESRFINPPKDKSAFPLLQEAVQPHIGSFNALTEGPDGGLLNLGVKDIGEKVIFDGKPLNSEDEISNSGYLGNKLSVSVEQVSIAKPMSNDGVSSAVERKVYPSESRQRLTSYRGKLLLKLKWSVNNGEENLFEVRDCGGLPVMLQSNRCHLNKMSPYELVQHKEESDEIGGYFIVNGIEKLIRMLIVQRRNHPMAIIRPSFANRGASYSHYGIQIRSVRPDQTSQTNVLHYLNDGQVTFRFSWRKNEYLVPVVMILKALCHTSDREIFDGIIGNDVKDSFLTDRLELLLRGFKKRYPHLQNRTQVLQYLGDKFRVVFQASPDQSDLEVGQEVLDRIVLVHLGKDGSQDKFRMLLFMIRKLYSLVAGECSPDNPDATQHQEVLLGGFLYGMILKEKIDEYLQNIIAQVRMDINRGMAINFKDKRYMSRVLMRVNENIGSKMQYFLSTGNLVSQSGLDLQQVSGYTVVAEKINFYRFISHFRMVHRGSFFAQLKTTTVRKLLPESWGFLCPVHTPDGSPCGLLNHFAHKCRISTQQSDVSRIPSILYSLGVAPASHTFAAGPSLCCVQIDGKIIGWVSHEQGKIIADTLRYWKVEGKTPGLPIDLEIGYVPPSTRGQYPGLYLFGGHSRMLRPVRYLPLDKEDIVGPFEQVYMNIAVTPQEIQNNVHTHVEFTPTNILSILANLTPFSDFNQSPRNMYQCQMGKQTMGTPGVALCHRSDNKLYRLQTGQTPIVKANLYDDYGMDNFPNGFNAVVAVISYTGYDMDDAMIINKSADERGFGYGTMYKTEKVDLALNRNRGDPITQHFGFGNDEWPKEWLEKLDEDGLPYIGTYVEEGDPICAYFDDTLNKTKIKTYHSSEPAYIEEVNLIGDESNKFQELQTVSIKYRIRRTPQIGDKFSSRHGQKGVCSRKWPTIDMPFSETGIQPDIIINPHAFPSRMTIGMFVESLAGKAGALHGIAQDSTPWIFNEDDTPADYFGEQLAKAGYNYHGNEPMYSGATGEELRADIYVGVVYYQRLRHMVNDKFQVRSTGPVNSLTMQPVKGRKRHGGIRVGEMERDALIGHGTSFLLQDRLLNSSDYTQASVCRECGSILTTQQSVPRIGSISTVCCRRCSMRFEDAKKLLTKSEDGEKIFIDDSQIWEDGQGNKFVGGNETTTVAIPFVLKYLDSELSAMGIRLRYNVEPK

T2: RNA polymerase I subunit AC40 (Saccharomyces cerevisiae, UniProt P07703 1-335)
T2 sequence: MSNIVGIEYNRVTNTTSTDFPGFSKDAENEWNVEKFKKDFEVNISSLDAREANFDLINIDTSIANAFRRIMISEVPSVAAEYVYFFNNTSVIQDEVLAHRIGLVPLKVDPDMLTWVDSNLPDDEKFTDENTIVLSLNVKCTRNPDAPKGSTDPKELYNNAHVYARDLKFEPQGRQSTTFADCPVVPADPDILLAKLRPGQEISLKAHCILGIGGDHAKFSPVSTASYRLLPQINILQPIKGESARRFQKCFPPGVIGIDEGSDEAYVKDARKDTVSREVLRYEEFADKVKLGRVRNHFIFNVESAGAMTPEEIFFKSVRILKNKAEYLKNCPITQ

B1: RNA polymerase I subunit A12.2 (natural protein)
chain: MSVVGSLIFCLDCGDLLENPNAVLGSNVECSQCKAIYPKSQFSNLKVVTTTADDAFPSSLRAKKSVVKTSLKKNELKDGATIKEKCPQCGNEEMNYHTLQLRSADEGATVFYTCTSCGYKFRTNN
B2: RNA polymerase I subunit AC19 (natural protein)
chain: MTEDIEQKKTATEVTPQEPKHIQEEEEQDVDMTGDEEQEEEPDREKIKLLTQATSEDGTSASFQIVEEDHTLGNALRYVIMKNPDVEFCGYSIPHPSENLLNIRIQTYGETTAVDALQKGLKDLMDLCDVVESKFTEKIKSM
B3: RNA polymerase I subunit A43 (natural protein)
chain: MSQVKRANENRETARFIKKHKKQVTNPIDEKNGTSNCIVRVPIALYVSLAPMYLENPLQGVMKQHLNPLVMKYNNKVGGVVLGYEGLKILDADPLSKEDTSEKLIKITPDTPFGFTWCHVNLYVWQPQVGDVLEGYIFIQSASHIGLLIHDAFNASIKKNNIPVDWTFVHNDVEEDADVINTDENNGNNNNEDNKDSNGGSNSLGKFSFGNRSLGHWVDSNGEPIDGKLRFTVRNVHTTGRVVSVDGTLISDADEEGNGYNSSRSQAESLPIVSNKKIVFDDEVSIENKESHKELDLPEVKEDNGSEIVYEENTSESNDGESSDSD
B4: RNA polymerase subunit Rpb5 (natural protein)
chain: MDQENERNISRLWRAFRTVKEMVKDRGYFITQEEVELPLEDFKAKYCDSMGRPQRKMMSFQANPTEESISKFPDMGSLWVEFCDEPSVGVKTMKTFVIHIQEKNFQTGIFVYQNNITPSAMKLVPSIPPATIETFNEAALVVNITHHELVPKHIRLSSDEKRELLKRYRLKESQLPRIQRADPVALYLGLKRGEVVKIIRKSETSGRYASYRICM
B5: RNA polymerase I subunit A34.5 (natural protein)
chain: MSKLSKDYVSDSDSDDEVISNEFSIPDGFKKCKHLKNFPLNGDNKKKAKQQQVWLIKFPSNVDISKLKSLPVDFESSTTMTIDKHDYKIMDDTDIESSLTQDNLSNMTLLVPSESKESLKIASTAKDNAPLQFDKVFSVSETAKIPAIDYSKVRVPRKDVPKVEGLKLEHFATGYDAEDFHVAEEVKENKKEPKKRSHHDDEEESSEKKKKKKEKREKREKKDKKDKKKKHRD
B6: RNA polymerase I subunit A49 (natural protein)
chain: MSVKRSVSEIEIESVQDQPSVAVGSFFKGFRAPSDTTFDLYKKKKSEKDEFVLHGENERLEYEGYTDSSSQASNQYVVGLFNPEKKSIQLYKAPVLVSKVVSKSSKNLRGPKIKSKSDTRPSALRNALGEAFGTKKAKKAIADLERNRIDSDKLTDSAIDIVDSVRTASKDLPTRAQLDEITSNDRPTPLANIDATDVEQIYPIESIIPKKELQFIRVSSILKEADKEKKLELFPYQNNSKYVAKKLDSLTQPSQMTKLQLLYYLSLLLGVYENRRVNNKTKLLERLNSPPEILVDGILSRFTVIKPGQFGRSKDRSYFIDPQNEDKILCYILAIIMHLDNFIVEITPLAHELNLKPSKVVSLFRVLGAIVKGATVAQAEAFGIPKSTAASYKIATMKVPFKLPEMTRRGRGPRR

Experiments:
Assay in all cases: cross-linking
[1] = biological target: T1, RNA polymerase I subunit A135
[2] = biological target: RNA polymerase I subunit A190 (Saccharomyces cerevisiae, UniProt P10964 1-1664)
[3] = biological target: B5
[4] = biological target: B6
[5] = biological target: T2, RNA polymerase I subunit AC40

RNA polymerase I subunit A190, sequence (P10964 whole entry): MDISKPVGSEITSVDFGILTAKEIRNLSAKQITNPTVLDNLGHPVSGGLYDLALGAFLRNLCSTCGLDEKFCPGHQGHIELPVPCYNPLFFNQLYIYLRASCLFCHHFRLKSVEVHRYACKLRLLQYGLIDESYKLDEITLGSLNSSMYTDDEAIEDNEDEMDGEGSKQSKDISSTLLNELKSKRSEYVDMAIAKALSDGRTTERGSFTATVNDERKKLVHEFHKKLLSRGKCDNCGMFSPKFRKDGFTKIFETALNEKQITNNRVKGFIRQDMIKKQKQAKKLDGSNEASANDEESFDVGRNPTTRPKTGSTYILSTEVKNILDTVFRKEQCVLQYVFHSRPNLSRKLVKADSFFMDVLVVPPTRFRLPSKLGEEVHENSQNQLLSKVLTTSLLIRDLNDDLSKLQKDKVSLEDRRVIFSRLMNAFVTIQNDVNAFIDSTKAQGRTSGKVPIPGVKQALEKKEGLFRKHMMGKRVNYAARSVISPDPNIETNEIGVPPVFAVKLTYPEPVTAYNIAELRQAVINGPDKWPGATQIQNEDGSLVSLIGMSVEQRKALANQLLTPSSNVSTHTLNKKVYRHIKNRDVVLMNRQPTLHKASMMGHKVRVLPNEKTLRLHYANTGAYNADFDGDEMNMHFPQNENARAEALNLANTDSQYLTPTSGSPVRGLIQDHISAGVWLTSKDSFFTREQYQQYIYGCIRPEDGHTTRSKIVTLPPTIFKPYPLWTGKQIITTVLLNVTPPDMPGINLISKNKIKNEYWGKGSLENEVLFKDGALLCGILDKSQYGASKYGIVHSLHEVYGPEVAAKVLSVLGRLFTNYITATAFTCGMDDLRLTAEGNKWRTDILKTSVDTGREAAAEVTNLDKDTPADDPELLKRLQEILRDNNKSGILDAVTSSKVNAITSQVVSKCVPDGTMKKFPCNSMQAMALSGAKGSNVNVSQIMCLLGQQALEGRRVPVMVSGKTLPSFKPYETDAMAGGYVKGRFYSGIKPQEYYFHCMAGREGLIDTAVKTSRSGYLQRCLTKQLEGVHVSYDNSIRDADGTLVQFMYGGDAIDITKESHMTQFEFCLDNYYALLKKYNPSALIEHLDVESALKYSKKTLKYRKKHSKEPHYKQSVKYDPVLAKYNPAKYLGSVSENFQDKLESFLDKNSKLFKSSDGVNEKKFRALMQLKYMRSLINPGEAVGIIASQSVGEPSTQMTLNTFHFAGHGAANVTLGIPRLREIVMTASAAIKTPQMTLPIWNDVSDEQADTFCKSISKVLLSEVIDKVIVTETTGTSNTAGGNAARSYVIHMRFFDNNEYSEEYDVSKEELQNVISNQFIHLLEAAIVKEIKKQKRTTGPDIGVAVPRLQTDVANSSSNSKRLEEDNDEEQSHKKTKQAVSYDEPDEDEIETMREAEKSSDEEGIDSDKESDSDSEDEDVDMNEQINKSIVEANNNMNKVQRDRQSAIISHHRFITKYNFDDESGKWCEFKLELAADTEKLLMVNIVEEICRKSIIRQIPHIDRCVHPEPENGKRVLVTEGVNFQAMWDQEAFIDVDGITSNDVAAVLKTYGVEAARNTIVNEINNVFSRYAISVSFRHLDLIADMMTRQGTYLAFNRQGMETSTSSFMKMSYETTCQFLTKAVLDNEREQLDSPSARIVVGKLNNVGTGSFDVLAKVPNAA

Row | binding result [1] | binding result [2] | binding result [4] | Binder | other results
1 | binds | binds |  | B1 | 
2 |  |  |  | B2 | binding result [3]: binds
3 |  |  | binds | B3 | 
4 |  |  | binds | B4 | 
5 | binds |  | binds | B5 | binding result [5]: binds
6 | binds | binds |  | B6 | 
